Where no end group is shown, it is not given here.
Tests used:
[1] = target: T1, Peptide 2-BSA (GSESTSSMED-C conjugated to BSA) (human); assay: ELISA; Ab 1 ug/mL; repII
T1 peptide: GSESTSSMEDC(BSA)
Description: (§1) In brief, plates with each non-conjugated peptide (50 μg/mL) or BSA-conjugated peptide (5 μg/mL) were coated in 0.58M carbonate-bicarbonate buffer pH9.5, 100 μL/well, at 4° C. […] After washing, wells were incubated with the 3, 3′,5,5′-Tetramethylbenzidine (TMB) HRP substrate and reactions were stopped with 2M HCl and OD450 was recorded.

[2] = target: T2, Peptide 1, non-conjugated (MADDYGSEST-C) (human); assay: ELISA; Ab 1 ug/mL; repII
T2 construct: With the extra C-terminal Cys
T2 peptide: MADDYGSESTC
Description: as §1

[3] = target: T3, antigen peptide-BSA (immunisation peptide #1 MADDYGSESTSSMEDYVNFNF-C conjugated to BSA) (human, extra C-terminal Cys conjugated to BSA); assay: ELISA; Ab 1 ug/mL; repII
T3 construct: also called Positive control antigen peptide-BSA; MADDY peptide
T3 peptide: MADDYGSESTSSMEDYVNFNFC
Description: as §1

[4] = target: T4, Peptide 3-BSA (SSMEDYVNFN-C conjugated to BSA) (human); assay: ELISA; Ab 1 ug/mL; repII
T4 peptide: SSMEDYVNFNC(BSA)
Description: as §1

[5] = target: T5, Peptide 1-BSA (MADDYGSEST-C conjugated to BSA) (human); assay: ELISA; Ab 1 ug/mL; repII
T5 peptide: MADDYGSESTC(BSA)
Description: as §1

[6] = target: T6, Peptide 2, non-conjugated (GSESTSSMED-C) (human); assay: ELISA; Ab 1 ug/mL; repII
T6 construct: With the extra C-terminal Cys
T6 peptide: GSESTSSMEDC
Description: as §1

[7] = target: T7, Peptide 4-BSA (SMEDYVNFNF-C conjugated to BSA) (human); assay: ELISA; Ab 1 ug/mL; repII
T7 peptide: SMEDYVNFNFC(BSA)
Description: as §1

[8] = target: T8, Peptide 4, non-conjugated (SMEDYVNFNF-C) (human); assay: ELISA; Ab 1 ug/mL; repII
T8 construct: With the extra C-terminal Cys
T8 peptide: SMEDYVNFNFC
Description: as §1

[9] = target: T9, BSA (negative control coating) (bovine, UniProt P02769 25-607); assay: ELISA; Ab 1 ug/mL; repII
T9 construct: also called Negative control BSA
Description: as §1

[10] = target: T10, Peptide 3, non-conjugated (SSMEDYVNFN-C) (human); assay: ELISA; Ab 1 ug/mL; repII
T10 construct: With the extra C-terminal Cys
T10 peptide: SSMEDYVNFNC
Description: as §1

[11] = target: T1, Peptide 2-BSA (GSESTSSMED-C conjugated …); assay: ELISA; Ab 0.0625 ug/mL; repII
Description: as §1

[12] = target: T2, Peptide 1, non-conjugated (MADDYGSEST-C); assay: ELISA; Ab 0.0625 ug/mL; repII
Description: as §1

[13] = target: T3, antigen peptide-BSA (immunisation …); assay: ELISA; Ab 0.0625 ug/mL; repII
Description: as §1

[14] = target: T4, Peptide 3-BSA (SSMEDYVNFN-C conjugated …); assay: ELISA; Ab 0.0625 ug/mL; repII
Description: as §1

[15] = target: T5, Peptide 1-BSA (MADDYGSEST-C conjugated …); assay: ELISA; Ab 0.0625 ug/mL; repII
Description: as §1

[16] = target: T6, Peptide 2, non-conjugated (GSESTSSMED-C); assay: ELISA; Ab 0.0625 ug/mL; repII
Description: as §1

[17] = target: T7, Peptide 4-BSA (SMEDYVNFNF-C conjugated …); assay: ELISA; Ab 0.0625 ug/mL; repII
Description: as §1

[18] = target: T8, Peptide 4, non-conjugated (SMEDYVNFNF-C); assay: ELISA; Ab 0.0625 ug/mL; repII
Description: as §1

[19] = target: T9, BSA (negative control coating); assay: ELISA; Ab 0.0625 ug/mL; repII
Description: as §1

[20] = target: T10, Peptide 3, non-conjugated (SSMEDYVNFN-C); assay: ELISA; Ab 0.0625 ug/mL; repII
Description: as §1

[21] = target: T1, Peptide 2-BSA (GSESTSSMED-C conjugated …); assay: ELISA; Ab 0.01563 ug/mL; repI
Description: as §1

[22] = target: T2, Peptide 1, non-conjugated (MADDYGSEST-C); assay: ELISA; Ab 0.01563 ug/mL; repI
Description: as §1

[23] = target: T3, antigen peptide-BSA (immunisation …); assay: ELISA; Ab 0.01563 ug/mL; repI
Description: as §1

[24] = target: T4, Peptide 3-BSA (SSMEDYVNFN-C conjugated …); assay: ELISA; Ab 0.01563 ug/mL; repI
Description: as §1

[25] = target: T5, Peptide 1-BSA (MADDYGSEST-C conjugated …); assay: ELISA; Ab 0.01563 ug/mL; repI
Description: as §1

[26] = target: T6, Peptide 2, non-conjugated (GSESTSSMED-C); assay: ELISA; Ab 0.01563 ug/mL; repI
Description: as §1

[27] = target: T7, Peptide 4-BSA (SMEDYVNFNF-C conjugated …); assay: ELISA; Ab 0.01563 ug/mL; repI
Description: as §1

[28] = target: T8, Peptide 4, non-conjugated (SMEDYVNFNF-C); assay: ELISA; Ab 0.01563 ug/mL; repI
Description: as §1

[29] = target: T9, BSA (negative control coating); assay: ELISA; Ab 0.01563 ug/mL; repI
Description: as §1

[30] = target: T10, Peptide 3, non-conjugated (SSMEDYVNFN-C); assay: ELISA; Ab 0.01563 ug/mL; repI
Description: as §1

T9 sequence (P02769 25-607 limits assumed): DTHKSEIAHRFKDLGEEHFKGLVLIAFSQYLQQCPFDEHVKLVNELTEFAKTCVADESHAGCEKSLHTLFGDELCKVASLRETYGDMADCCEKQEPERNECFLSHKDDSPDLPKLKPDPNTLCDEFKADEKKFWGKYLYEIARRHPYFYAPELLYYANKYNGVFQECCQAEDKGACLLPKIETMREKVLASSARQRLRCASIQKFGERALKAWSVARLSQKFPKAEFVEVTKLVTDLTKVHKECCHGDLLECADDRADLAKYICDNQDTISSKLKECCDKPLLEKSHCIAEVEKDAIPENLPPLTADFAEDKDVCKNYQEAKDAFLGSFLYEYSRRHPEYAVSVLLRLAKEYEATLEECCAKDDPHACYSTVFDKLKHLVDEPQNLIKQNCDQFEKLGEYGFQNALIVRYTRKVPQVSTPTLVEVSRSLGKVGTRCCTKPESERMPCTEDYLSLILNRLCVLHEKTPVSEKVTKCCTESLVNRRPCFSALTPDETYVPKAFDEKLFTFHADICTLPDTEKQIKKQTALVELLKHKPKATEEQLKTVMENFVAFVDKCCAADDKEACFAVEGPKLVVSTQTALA

OD450 [1]: 0.03 OD
OD450 [2]: 0.02 OD
OD450 [3]: 2.68 OD
OD450 [4]: 2.16 OD
OD450 [5]: 0.03 OD
OD450 [6]: 0.02 OD
OD450 [7]: 2.75 OD
OD450 [8]: 2.46 OD
OD450 [9]: 0.02 OD
OD450 [10]: 2.1 OD
OD450 [11]: 0.01 OD
OD450 [12]: 0.01 OD
OD450 [13]: 2.08 OD
OD450 [14]: 1.78 OD
OD450 [15]: 0.01 OD
OD450 [16]: 0.01 OD
OD450 [17]: 2.01 OD
OD450 [18]: 1.19 OD
OD450 [19]: 0.01 OD
OD450 [20]: 1.67 OD
OD450 [21]: 0.01 OD
OD450 [22]: 0.01 OD
OD450 [23]: 1.1 OD
OD450 [24]: 1.33 OD
OD450 [25]: 0.01 OD
OD450 [26]: 0.01 OD
OD450 [27]: 0.91 OD
OD450 [28]: 0.38 OD
OD450 [29]: 0.01 OD
OD450 [30]: 1.47 OD
B1: anti-CCR9 antibody clone 115 (murine, from hybridoma #115) (antibody, V domains shown)
VH: QVQLKQSGPELVKPGTSVRVSCTASGYSFTDYIIYWVKQSHGRSLEWIGYIDPNNYNTRYSQKFKGKATLTVDKSSTSAFMHLNSLTSDDSAVYYCARDVYWGQGTTLTVSS
VL: DVVMTQTPLSLTVSLGDQASISCRSSQSLVHSNGKTYLQWYLQKPGQSPKLLIYKVSNRFSGVPDRFSGSGSGTDFTLKISRVEAEDLGVYFCAQSTHVWTFGGGTKLEIKR
notes: Mouse IgG1

Reference: patent US20260232732A1 (FUNDACI INSTITUT DE RECERCA CONTRA LA LEUC MIA JOSEP …, published 2026)
